Molecular target: CsrA-His10 (Escherichia coli K-12, UniProt P69913 1-61)
Assay: EMSA

Binder	binding result
GGGUUCAGGGACGUCAUUACGGGCAGGAUUGCCCACCC (structured_RNA) [FimR2-G23A-G24U]	no binding
GGGUUCAAAGACGUCAUUACGGGCAGGGAUGCCCACCC (structured_RNA) [FimR2 ssRegion mutant]	binds
